We go through one substance from PMC6302314.

For test [1], the target named is tau K18 ΔK280 (I260C/C291A/C322A), labelled with Alexa488 or Alexa647. Kind of test: FRET or BRET; single-molecule FRET between copies; 5 μM tau–Alexa488 + 5 μM tau–Alexa647, aggregation started with heparin (1:4 heparin/tau), 22-42 °C; aliquots diluted 12.500 times into high ionic strength buffer (0.5 M NaCl); confocal detection in a microfluidic channel, 6 min per time point. Background: BRET reads energy transfer from a luciferase to a nearby fluorophore.

The target is the same in test [2]. Description: FRET or BRET; single-molecule FRET between copies; 5 μM tau–Alexa488 + 5 μM tau–Alexa647, aggregation started with heparin (1:4 heparin/tau), 22-42 °C; aliquots diluted 12.500 times into low ionic strength buffer (no NaCl); confocal detection in a microfluidic channel, 6 min per time point.

Take “tau K18 ΔK280 (I260C/C291A/C322A), labelled with Alexa488 or Alexa647 (domain or fragment)”: the maximum observed concentration of type B oligomers (37 °C) in test [1] turned out to be 37 nM. Further, the maximum observed concentration of type A oligomers (37 °C) in test [2] is 104 nM.
